Data on 1 substance can be found in patent publication EP1817050B1.

Assay [1] has as its target IGF-II receptor (human, in membrane extracts of postmortem frontal lobe tissue) (human) (UniProt P11717). The assay is described as follows: saturation binding of [125I]-IGF-II to pooled human frontal lobe extracts, Braak 6; one-site fit/Scatchard.
Assay [2] has the same target. Kind of assay: saturation binding of [125I]-IGF-II to pooled human frontal lobe extracts, Braak 0-1; one-site fit/Scatchard.
Assay [3] has the same target. The assay is described as follows: saturation binding of [125I]-IGF-II to pooled human frontal lobe extracts, Braak 2-3; one-site fit/Scatchard.
Assay [4] has the same target. The assay is described as follows: saturation binding of [125I]-IGF-II to pooled human frontal lobe extracts, Braak 4-5; one-site fit/Scatchard.

Chain of IGF-II receptor (human, in membrane extracts of postmortem frontal lobe tissue) (human) (P11717 41-2491 limits assumed): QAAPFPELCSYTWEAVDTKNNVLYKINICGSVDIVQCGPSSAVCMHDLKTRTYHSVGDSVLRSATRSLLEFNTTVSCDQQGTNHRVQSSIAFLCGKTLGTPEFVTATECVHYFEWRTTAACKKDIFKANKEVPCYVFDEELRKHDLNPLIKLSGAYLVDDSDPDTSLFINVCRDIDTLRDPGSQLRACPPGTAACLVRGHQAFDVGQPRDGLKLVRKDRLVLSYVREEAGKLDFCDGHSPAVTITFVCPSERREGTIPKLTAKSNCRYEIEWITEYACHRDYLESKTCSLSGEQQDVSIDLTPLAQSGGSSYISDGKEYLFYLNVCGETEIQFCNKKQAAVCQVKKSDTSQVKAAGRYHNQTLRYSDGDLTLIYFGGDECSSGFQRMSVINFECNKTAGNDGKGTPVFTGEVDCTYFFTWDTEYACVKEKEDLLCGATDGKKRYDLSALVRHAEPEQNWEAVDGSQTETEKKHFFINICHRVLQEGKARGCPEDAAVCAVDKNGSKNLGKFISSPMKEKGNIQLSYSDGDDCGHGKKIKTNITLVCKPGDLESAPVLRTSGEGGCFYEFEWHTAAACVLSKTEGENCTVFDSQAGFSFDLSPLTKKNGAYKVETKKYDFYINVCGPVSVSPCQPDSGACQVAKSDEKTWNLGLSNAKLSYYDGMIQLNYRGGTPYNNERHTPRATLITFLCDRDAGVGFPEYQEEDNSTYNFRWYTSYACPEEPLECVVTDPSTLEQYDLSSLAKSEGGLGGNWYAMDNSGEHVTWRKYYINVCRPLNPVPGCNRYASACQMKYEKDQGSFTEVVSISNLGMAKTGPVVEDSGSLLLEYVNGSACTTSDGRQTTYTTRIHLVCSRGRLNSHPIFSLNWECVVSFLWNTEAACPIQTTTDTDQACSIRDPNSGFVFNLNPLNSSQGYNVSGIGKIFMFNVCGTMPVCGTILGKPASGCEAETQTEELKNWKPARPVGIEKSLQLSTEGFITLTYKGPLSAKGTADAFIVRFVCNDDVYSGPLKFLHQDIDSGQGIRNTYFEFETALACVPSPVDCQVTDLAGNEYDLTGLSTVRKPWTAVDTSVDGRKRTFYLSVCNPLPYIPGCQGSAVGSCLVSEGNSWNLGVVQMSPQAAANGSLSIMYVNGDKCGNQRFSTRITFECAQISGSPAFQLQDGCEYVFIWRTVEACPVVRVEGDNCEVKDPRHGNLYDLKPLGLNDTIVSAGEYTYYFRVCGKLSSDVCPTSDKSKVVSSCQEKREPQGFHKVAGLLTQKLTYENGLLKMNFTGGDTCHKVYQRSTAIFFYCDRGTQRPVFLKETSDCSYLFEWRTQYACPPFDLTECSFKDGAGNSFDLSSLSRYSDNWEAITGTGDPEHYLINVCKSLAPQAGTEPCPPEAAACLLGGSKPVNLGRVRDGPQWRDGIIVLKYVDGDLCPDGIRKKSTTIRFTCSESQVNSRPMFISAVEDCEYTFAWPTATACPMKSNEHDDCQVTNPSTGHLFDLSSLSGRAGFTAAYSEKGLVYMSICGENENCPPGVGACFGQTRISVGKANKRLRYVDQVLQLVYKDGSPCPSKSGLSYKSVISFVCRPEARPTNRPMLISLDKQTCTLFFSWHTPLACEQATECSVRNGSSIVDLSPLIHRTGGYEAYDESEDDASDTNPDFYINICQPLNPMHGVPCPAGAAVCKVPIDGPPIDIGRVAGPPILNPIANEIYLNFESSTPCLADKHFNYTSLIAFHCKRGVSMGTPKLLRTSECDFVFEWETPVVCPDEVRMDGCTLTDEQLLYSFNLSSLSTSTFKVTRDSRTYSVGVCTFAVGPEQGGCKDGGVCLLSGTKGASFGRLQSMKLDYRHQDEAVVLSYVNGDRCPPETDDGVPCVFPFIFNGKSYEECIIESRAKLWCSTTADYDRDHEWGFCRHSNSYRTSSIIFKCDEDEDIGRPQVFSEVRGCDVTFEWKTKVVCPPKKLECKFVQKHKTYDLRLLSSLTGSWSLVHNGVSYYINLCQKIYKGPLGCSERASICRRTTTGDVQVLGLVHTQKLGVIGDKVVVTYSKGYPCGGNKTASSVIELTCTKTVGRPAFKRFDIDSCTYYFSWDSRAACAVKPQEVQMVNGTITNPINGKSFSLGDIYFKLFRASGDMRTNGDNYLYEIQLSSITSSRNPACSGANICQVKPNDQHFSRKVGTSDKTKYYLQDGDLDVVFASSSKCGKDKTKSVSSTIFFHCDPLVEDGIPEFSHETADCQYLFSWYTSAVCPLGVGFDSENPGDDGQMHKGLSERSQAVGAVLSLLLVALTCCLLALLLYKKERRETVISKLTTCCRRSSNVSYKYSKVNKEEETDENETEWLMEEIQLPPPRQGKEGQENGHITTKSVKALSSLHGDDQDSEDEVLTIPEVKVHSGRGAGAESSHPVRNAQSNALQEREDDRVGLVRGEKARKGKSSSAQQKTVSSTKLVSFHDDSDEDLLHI

With [125I]-labeled IGF-II (ligand), the BMAX (fmol/mg protein) in assay [1] was found to be 4.71; in assay [2] it was 16.8; in assay [3], 12.5; in assay [4], 8.14.
